Assay results published in patent US20110250213A1 (JN BIOSCIENCES, published 2011).

How the values were obtained:
human CD122 (human) = human CD122 (human) (UniProt P14784); test: cell-based or functional assay
mouse CD122 = target: T1, mouse CD122 (mouse, UniProt P16297 27-240, limits assumed); test: assay not specified
T1 sequence (looked up): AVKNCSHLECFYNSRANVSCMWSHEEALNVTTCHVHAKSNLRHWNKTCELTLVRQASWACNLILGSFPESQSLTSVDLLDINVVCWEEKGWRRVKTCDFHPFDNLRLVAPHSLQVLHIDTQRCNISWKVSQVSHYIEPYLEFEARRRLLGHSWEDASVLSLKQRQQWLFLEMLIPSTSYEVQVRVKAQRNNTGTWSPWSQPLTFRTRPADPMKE

human CD122 (human), sequence (P14784 27-551): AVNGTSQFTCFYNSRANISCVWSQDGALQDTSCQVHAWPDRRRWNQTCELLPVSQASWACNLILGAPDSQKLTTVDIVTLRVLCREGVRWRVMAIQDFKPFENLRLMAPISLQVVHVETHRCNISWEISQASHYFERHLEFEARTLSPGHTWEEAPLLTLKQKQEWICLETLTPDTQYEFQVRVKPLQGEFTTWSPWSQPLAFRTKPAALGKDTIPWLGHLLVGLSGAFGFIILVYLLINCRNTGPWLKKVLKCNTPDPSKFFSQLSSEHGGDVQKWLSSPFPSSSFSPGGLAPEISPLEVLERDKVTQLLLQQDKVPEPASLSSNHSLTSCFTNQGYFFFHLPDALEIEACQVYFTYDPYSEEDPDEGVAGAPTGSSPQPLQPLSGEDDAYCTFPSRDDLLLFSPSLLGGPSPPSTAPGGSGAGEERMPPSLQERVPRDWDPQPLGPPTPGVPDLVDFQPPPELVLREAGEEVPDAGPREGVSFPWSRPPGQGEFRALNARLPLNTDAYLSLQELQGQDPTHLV

HuMik-β1 (antibody) was tested, and the antibody concentration required for 50% inhibition of proliferation mediated by trans-presentation of IL-15 to TF-1β cells (human CD122 (human)) was 10 µg/mL.

B1: ABC101 (antibody, mouse IgG2b, V domains shown)
VH: DVQLQESGPGLVKPSQTVSLTCTVTGYSITNDNHWWNWIRQVSGSKLEWMGYIDSSGSSDNNPSLKSQISITRDTSKNQLFLQLNSVTIEDIGTYYCARGGGRDYYGMDYWGQGTSVTVSS
VL: DIVLTQSPASLAVSLGQRATISCRASQSVSTSSYSYVHWYQQKPGQPPKLLIKYASNLESGVPARFSGSGSGTDFTLNIHPVEEEDTATYYCQHSWDIPFTFGGGTKLEIK
notes: Mouse IgG2b/kappa purified from hybridoma; also called mouse anti-human CD122 monoclonal antibody ABC101
B1: no binding (mouse CD122).

B2: ABC2 (antibody, mouse IgG1, V domains shown)
VH: EVKLVESGGGLVQPGGSLRLSCATSGFTFSDFYMEWVRQPPGKRLEWIAASRNKANDYTTEYSASVKGRFIVSRDTSQSILYLQMNALRAEDTAIYYCARSYYRYDGMDYWGQGTSVTVSS
VL: QVVLTQSPVIMSASPGEKVTMTCSAISSVSYMYWYQQKPGSSPRLLIYDTSNLVSGVPVRFSGSGSGTSYSLTISRMEAEDAATYYCQQWNTYPYTFGGGTKLEIK
notes: Mouse IgG1/kappa purified from hybridoma; also called mouse anti-human CD122 monoclonal antibody ABC2
B2: no binding (mouse CD122).
